In FireProtDB (doi:10.1016/j.jmb.2003.10.041):

B1: Bacteriorhodopsin, P02945 (parent)
chain: MLELLPTAVEGVSQAQITGRPEWIWLALGTALMGLGTLYFLVKGMGVSDPDAKKFYAITTLVPAIAFTMYLSMLLGYGLTMVPFGGEQNPIYWARYADWLFTTPLLLLDLALLVDADQGTILALVGADGIMIGTGLVGALTKVYSYRFVWWAISTAAMLYILYVLFFGFTSKAESMRPEVASTFKVLRNVTVVLWSAYPVVWLIGSEGAGIVPLNIETLLFMVLDVSAKVGFGLILLRSRAIFGEAEAPEPSAGDGAAATSD

Variants of: B1
Settings: Halobacterium salinarum (strain ATCC 700922 / JCM 11081 / NRC-1); pH 6; 25 °C; SDS; Absorbance; sodium phosphate 10 mM; reversible: yes (90%); structure 2BRD; whole UniProt chain shown

First: MLELLPTAVEGVSQAQITGRPEWIWLALGTALMGLGTLYFLVKGMGVSDPDAKKFYAATTLVPAIAFTMYLSMLLGYGLTMVPFGGEQNPIYWARYADWLFTTPLLLLDLALLVDADQGTILALVGADGIMIGTGLVGALTKVYSYRFVWWAISTAAMLYILYVLFFGFTSKAESMRPEVASTFKVLRNVTVVLWSAYPVVWLIGSEGAGIVPLNIETLLFMVLDVSAKVGFGLILLRSRAIFGEAEAPEPSAGDGAAATSD [I58A]
Second: MLELLPTAVEGVSQAQITGRPEWIWLALGTALMGLGTLYFLVKGMGVSDPDAKKFYAIATLVPAIAFTMYLSMLLGYGLTMVPFGGEQNPIYWARYADWLFTTPLLLLDLALLVDADQGTILALVGADGIMIGTGLVGALTKVYSYRFVWWAISTAAMLYILYVLFFGFTSKAESMRPEVASTFKVLRNVTVVLWSAYPVVWLIGSEGAGIVPLNIETLLFMVLDVSAKVGFGLILLRSRAIFGEAEAPEPSAGDGAAATSD [T59A]
The “ddG of mutation (higher = less stable)” value of the first is lower: 1.9 kcal/mol for the first, 2.2 kcal/mol for the second.

Compared with MLELLPTAVEGVSQAQITGRPEWIWLALGTALMGLGTLYFLVKGMGVSDPDAKKFYAITTLVPAIAFTAYLSMLLGYGLTMVPFGGEQNPIYWARYADWLFTTPLLLLDLALLVDADQGTILALVGADGIMIGTGLVGALTKVYSYRFVWWAISTAAMLYILYVLFFGFTSKAESMRPEVASTFKVLRNVTVVLWSAYPVVWLIGSEGAGIVPLNIETLLFMVLDVSAKVGFGLILLRSRAIFGEAEAPEPSAGDGAAATSD [M69A], MLELLPTAVEGVSQAQITGRPEWIWLALGTALMGLGTLYFLVKGMGVSDPDAKKFYAITTAVPAIAFTMYLSMLLGYGLTMVPFGGEQNPIYWARYADWLFTTPLLLLDLALLVDADQGTILALVGADGIMIGTGLVGALTKVYSYRFVWWAISTAAMLYILYVLFFGFTSKAESMRPEVASTFKVLRNVTVVLWSAYPVVWLIGSEGAGIVPLNIETLLFMVLDVSAKVGFGLILLRSRAIFGEAEAPEPSAGDGAAATSD [L61A] is higher in “ddG of mutation (higher = less stable)” value: -1.4 kcal/mol for the first, 0.1 kcal/mol for the second.

First: MLELLPTAVEGVSQAQITGRPEWIWLALGTALMGLGTLYFLVKGMGVSDPDAKKFYAITTLVPAIAFTMYLSALLGYGLTMVPFGGEQNPIYWARYADWLFTTPLLLLDLALLVDADQGTILALVGADGIMIGTGLVGALTKVYSYRFVWWAISTAAMLYILYVLFFGFTSKAESMRPEVASTFKVLRNVTVVLWSAYPVVWLIGSEGAGIVPLNIETLLFMVLDVSAKVGFGLILLRSRAIFGEAEAPEPSAGDGAAATSD [M73A]
Second: MLELLPTAVEGVSQAQITGRPEWIWLALGTALMGLGTLYFLVKGMGVSAPDAKKFYAITTLVPAIAFTMYLSMLLGYGLTMVPFGGEQNPIYWARYADWLFTTPLLLLDLALLVDADQGTILALVGADGIMIGTGLVGALTKVYSYRFVWWAISTAAMLYILYVLFFGFTSKAESMRPEVASTFKVLRNVTVVLWSAYPVVWLIGSEGAGIVPLNIETLLFMVLDVSAKVGFGLILLRSRAIFGEAEAPEPSAGDGAAATSD [D49A]
The “ddG of mutation (higher = less stable)” value of the first is lower: 0.8 kcal/mol for the first, 0.9 kcal/mol for the second.

Going from MLELLPTAVEGVSQAQITGRPEWIWLALGTALMGLGTLYFLVKGMGVSDPDAKKFYAITTLVPAIAFTMYLAMLLGYGLTMVPFGGEQNPIYWARYADWLFTTPLLLLDLALLVDADQGTILALVGADGIMIGTGLVGALTKVYSYRFVWWAISTAAMLYILYVLFFGFTSKAESMRPEVASTFKVLRNVTVVLWSAYPVVWLIGSEGAGIVPLNIETLLFMVLDVSAKVGFGLILLRSRAIFGEAEAPEPSAGDGAAATSD [S72A] to MLELLPTAVEGVSQAQITGRPEWIWLALGTALMGLGTLYFLVKGMGVSDPDAKKFYAITTLVPAIAFAMYLSMLLGYGLTMVPFGGEQNPIYWARYADWLFTTPLLLLDLALLVDADQGTILALVGADGIMIGTGLVGALTKVYSYRFVWWAISTAAMLYILYVLFFGFTSKAESMRPEVASTFKVLRNVTVVLWSAYPVVWLIGSEGAGIVPLNIETLLFMVLDVSAKVGFGLILLRSRAIFGEAEAPEPSAGDGAAATSD [T68A], the “ddG of mutation (higher = less stable)” value rises from -0.1 kcal/mol to 0.1 kcal/mol.

First: MLELLPTAVEGVSQAQITGRPEWIWLALGTALMGLGTLYFLVKGMGVSDPDAKKFYAITTLVPAAAFTMYLSMLLGYGLTMVPFGGEQNPIYWARYADWLFTTPLLLLDLALLVDADQGTILALVGADGIMIGTGLVGALTKVYSYRFVWWAISTAAMLYILYVLFFGFTSKAESMRPEVASTFKVLRNVTVVLWSAYPVVWLIGSEGAGIVPLNIETLLFMVLDVSAKVGFGLILLRSRAIFGEAEAPEPSAGDGAAATSD [I65A]
Second: MLELLPTAVEGVSQAQITGRPEWIWLALGTALMGLGTLYFLVKGMGVSDPDAKKFYAITTLAPAIAFTMYLSMLLGYGLTMVPFGGEQNPIYWARYADWLFTTPLLLLDLALLVDADQGTILALVGADGIMIGTGLVGALTKVYSYRFVWWAISTAAMLYILYVLFFGFTSKAESMRPEVASTFKVLRNVTVVLWSAYPVVWLIGSEGAGIVPLNIETLLFMVLDVSAKVGFGLILLRSRAIFGEAEAPEPSAGDGAAATSD [V62A]
The “ddG of mutation (higher = less stable)” value of the first is higher: 1.4 kcal/mol for the first, -0.7 kcal/mol for the second.

With MLELLPTAVEGVSQAQITGRPEWIWLALGTALMGLGTLYFLVKGMGVSDPDAKAFYAITTLVPAIAFTMYLSMLLGYGLTMVPFGGEQNPIYWARYADWLFTTPLLLLDLALLVDADQGTILALVGADGIMIGTGLVGALTKVYSYRFVWWAISTAAMLYILYVLFFGFTSKAESMRPEVASTFKVLRNVTVVLWSAYPVVWLIGSEGAGIVPLNIETLLFMVLDVSAKVGFGLILLRSRAIFGEAEAPEPSAGDGAAATSD [K54A] the “ddG of mutation (higher = less stable)” value was 1.6 kcal/mol.
